{"source": "paper PMC7954794", "about": "“Protein context shapes the specificity of SH3 domain-mediated interactions in vivo” (Nature Communications, 2021)", "molecules": {"B1": {"name": "PIN3 (protein, UniProt Q06449 2-215, looked up)", "[PSI+] inducibility protein 3": "SASLINRSLTNIRTELDFLKGSNVISNDVYDQINKSLPAKWDPANAPRNASPASLEYVEALYQFDPQQDGDLGLKPGDKVQLLEKLSPEWYKGSCNGRTGIFPANYVKPAFSGSNGPSNLPPPPQYKAQELQQIPTQNSAASSYQQQPFPPPSTNYYQQPQQQPQQAPPPQQQQQQQQHQSSHSHLKSFGSKLGNAAIFGAGASIGSDIVNNIF"}}, "system": "Abp1 PPIs", "assay": "DHFR-PCA of Abp1 SH3-swapped baits (Fig. 2B-D, S2C, S2F);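 as to Protein-protein interaction distance between Abp1 SH3-swapped baits, to ABP1: Euclidean distance between DHFR-PCA score profiles of the baits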;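 as to Protein-protein interaction distance between Abp1 SH3-swapped baits, to BEM1-2: Euclidean distance between DHFR-PCA score profiles of the baits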;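 as to Protein-protein interaction distance between Abp1 SH3-swapped baits, to BOI1: Euclidean distance between DHFR-PCA score profiles of the baits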;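 as to Protein-protein interaction distance between Abp1 SH3-swapped baits, to BZZ1-1: Euclidean distance between DHFR-PCA score profiles of the baits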", "format": "cell-based, Saccharomyces cerevisiae", "how_it_was_run": "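Interactions were scored by DHFR protein-fragment complementation. DHFR F[1,2]-tagged Abp1 strains, whose SH3 was swapped for yeast or human ortholog domains, were crossed on YPD at 30 °C for 48 h with a 1536-format array of 575 prey-DHFR F[3] strains and 40 negatives, giving four replicates per pair. PCA selection lasted 4 days after double diploid selection.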", "key": {"[1]": {"conditions": "number of PPIs, difference, Abp1 SH3-swapped with the listed SH3, Fig2D,S2F"}}}
{"molecule": "B1", "values": [{"measurement": "Protein-protein interaction distance between Abp1 SH3-swapped baits, to ABP1", "setting": "Abp1 bait with swapped SH3, distance to bait with ABP1 SH3, sheet Fig2C", "value": 11.43}, {"measurement": "Protein-protein interaction distance between Abp1 SH3-swapped baits, to BBC1", "setting": "distance to Abp1 bait with BBC1 SH3, sheet Fig2C", "value": 11.25}, {"measurement": "Protein-protein interaction distance between Abp1 SH3-swapped baits, to BEM1-1", "setting": "distance to Abp1 bait with BEM1-1 SH3, sheet Fig2C", "value": 16.56}, {"measurement": "Protein-protein interaction distance between Abp1 SH3-swapped baits, to BEM1-2", "setting": "distance to Abp1 bait with BEM1-2 SH3, sheet Fig2C", "value": 33.69}, {"measurement": "Protein-protein interaction distance between Abp1 SH3-swapped baits, to BOI1", "setting": "distance to Abp1 bait with BOI1 SH3, sheet Fig2C", "value": 13.58}, {"measurement": "Protein-protein interaction distance between Abp1 SH3-swapped baits, to BOI2", "setting": "distance to Abp1 bait with BOI2 SH3, sheet Fig2C", "value": 17.21}, {"measurement": "Protein-protein interaction distance between Abp1 SH3-swapped baits, to BUD14", "setting": "distance to Abp1 bait with BUD14 SH3, sheet Fig2C", "value": 19.7}, {"measurement": "Protein-protein interaction distance between Abp1 SH3-swapped baits, to BZZ1-1", "setting": "distance to Abp1 bait with BZZ1-1 SH3, sheet Fig2C", "value": 8.164}, {"measurement": "Protein-protein interaction distance between Abp1 SH3-swapped baits, to BZZ1-2", "setting": "distance to Abp1 bait with BZZ1-2 SH3, sheet Fig2C", "value": 13.53}, {"measurement": "Protein-protein interaction distance between Abp1 SH3-swapped baits, to CDC25", "setting": "distance to Abp1 bait with CDC25 SH3, sheet Fig2C", "value": 28.09}, {"measurement": "Protein-protein interaction distance between Abp1 SH3-swapped baits, to CTTN", "setting": "distance to Abp1 bait with CTTN SH3, sheet Fig2C", "value": 14.08}, {"measurement": "Protein-protein interaction distance between Abp1 SH3-swapped baits, to CYK3", "setting": "distance to Abp1 bait with CYK3 SH3, sheet Fig2C", "value": 28.76}, {"measurement": "Protein-protein interaction distance between Abp1 SH3-swapped baits, to DBNL", "setting": "distance to Abp1 bait with DBNL SH3, sheet Fig2C", "value": 8.074}, {"measurement": "Protein-protein interaction distance between Abp1 SH3-swapped baits, to FUS1", "setting": "distance to Abp1 bait with FUS1 SH3, sheet Fig2C", "value": 21.08}, {"measurement": "Protein-protein interaction distance between Abp1 SH3-swapped baits, to HCLS1", "setting": "distance to Abp1 bait with HCLS1 SH3, sheet Fig2C", "value": 8.844}, {"measurement": "Protein-protein interaction distance between Abp1 SH3-swapped baits, to HOF1", "setting": "distance to Abp1 bait with HOF1 SH3, sheet Fig2C", "value": 32.38}, {"measurement": "Protein-protein interaction distance between Abp1 SH3-swapped baits, to HSE1", "setting": "distance to Abp1 bait with HSE1 SH3, sheet Fig2C", "value": 9.808}, {"measurement": "Protein-protein interaction distance between Abp1 SH3-swapped baits, to LSB1", "setting": "distance to Abp1 bait with LSB1 SH3, sheet Fig2C", "value": 5.513}, {"measurement": "Protein-protein interaction distance between Abp1 SH3-swapped baits, to LSB3", "setting": "distance to Abp1 bait with LSB3 SH3, sheet Fig2C", "value": 5.817}, {"measurement": "Protein-protein interaction distance between Abp1 SH3-swapped baits, to MYO3", "setting": "distance to Abp1 bait with MYO3 SH3, sheet Fig2C", "value": 8.374}, {"measurement": "Protein-protein interaction distance between Abp1 SH3-swapped baits, to MYO5", "setting": "distance to Abp1 bait with MYO5 SH3, sheet Fig2C", "value": 6.67}, {"measurement": "Protein-protein interaction distance between Abp1 SH3-swapped baits, to NBP2", "setting": "distance to Abp1 bait with NBP2 SH3, sheet Fig2C", "value": 18.8}, {"measurement": "Protein-protein interaction distance between Abp1 SH3-swapped baits, to PEX13", "setting": "distance to Abp1 bait with PEX13 SH3, sheet Fig2C", "value": 5.433}, {"measurement": "Protein-protein interaction distance between Abp1 SH3-swapped baits, to PIN3", "setting": "distance to Abp1 bait with PIN3 SH3, sheet Fig2C", "value": 0.00}, {"measurement": "Protein-protein interaction distance between Abp1 SH3-swapped baits, to RVS167", "setting": "distance to Abp1 bait with RVS167 SH3, sheet Fig2C", "value": 5.294}, {"measurement": "Protein-protein interaction distance between Abp1 SH3-swapped baits, to SDC25", "setting": "distance to Abp1 bait with SDC25 SH3, sheet Fig2C", "value": 34.35}, {"measurement": "Protein-protein interaction distance between Abp1 SH3-swapped baits, to SHO1", "setting": "distance to Abp1 bait with SHO1 SH3, sheet Fig2C", "value": 9.004}, {"measurement": "Protein-protein interaction distance between Abp1 SH3-swapped baits, to SLA1-1", "setting": "distance to Abp1 bait with SLA1-1 SH3, sheet Fig2C", "value": 30.57}, {"measurement": "Protein-protein interaction distance between Abp1 SH3-swapped baits, to SLA1-2", "setting": "distance to Abp1 bait with SLA1-2 SH3, sheet Fig2C", "value": 21.49}, {"measurement": "Protein-protein interaction distance between Abp1 SH3-swapped baits, to SLA1-3", "setting": "distance to Abp1 bait with SLA1-3 SH3, sheet Fig2C", "value": 6.016}, {"measurement": "Protein-protein interaction distance between Abp1 SH3-swapped baits, to YSC84", "setting": "distance to Abp1 bait with YSC84 SH3, sheet Fig2C", "value": 5.862}, {"measurement": "PPIs gained by Abp1 - SH3-dependent PPIs gained by Abp1", "setting": "[1]", "value": 29}, {"measurement": "SH3-dependent PPIs - SH3-dependent PPIs gained by Abp1", "setting": "[1]", "value": 13}, {"measurement": "SH3-dependent PPIs gained by Abp1", "setting": "number of PPIs, Abp1 SH3-swapped with the listed SH3, DHFR-PCA, Fig2D,S2F", "value": 0}]}
